Data taken from patent publication US20180143213A1.

Experiments:
[1] = target: beta2-adrenergic receptor-luciferase fusion protein (human); experiment: bridge assay (Example 4A), sc-569 at 5 ng/ml in buffer
[2] = target: beta2-adrenergic receptor-luciferase fusion protein (human); experiment: bridge assay (Example 4A), sc-569 at 5000 ng/ml in buffer
[3] = target: beta2-adrenergic receptor-luciferase fusion protein (human); experiment: bridge assay (Example 4A), sc-569 at 50 ng/ml in buffer
[4] = target: beta2-adrenergic receptor-luciferase fusion protein (human); experiment: bridge assay (Example 4A), sc-569 at 200 ng/ml in buffer
[5] = target: beta2-adrenergic receptor-luciferase fusion protein (human); experiment: bridge assay (Example 4A), sc-569 at 500 ng/ml in buffer
[6] = target: beta2-adrenergic receptor-luciferase fusion protein (human); experiment: bridge assay (Example 4A), sc-569 at 2000 ng/ml in buffer
[7] = target: beta2-adrenergic receptor-luciferase fusion protein (human); experiment: bridge assay (Example 4A), sc-569 at 20 ng/ml in buffer
[8] = target: beta2-adrenergic receptor-luciferase fusion protein (human); experiment: bridge assay (Example 4A), sc-569 at 1000 ng/ml in buffer
[9] = target: beta2-adrenergic receptor-luciferase fusion protein (human); experiment: bridge assay (Example 4A), sc-569 at 1 ng/ml in buffer
[10] = target: beta2-adrenergic receptor-luciferase fusion protein (human); experiment: bridge assay (Example 4A), sc-569 at 20000 ng/ml in buffer
[11] = target: beta2-adrenergic receptor-luciferase fusion protein (human); experiment: bridge assay (Example 4A), sc-569 at 100 ng/ml in buffer
[12] = target: beta2-adrenergic receptor-luciferase fusion protein (human); experiment: bridge assay (Example 4A), sc-569 at 10 ng/ml in buffer
[13] = target: beta2-adrenergic receptor-luciferase fusion protein (human); experiment: bridge assay (Example 4A), sc-569 at 2 ng/ml in buffer
[14] = target: beta2-adrenergic receptor-luciferase fusion protein (human); experiment: bridge assay (Example 4A), sc-569 at 10000 ng/ml in buffer

Work on “Antibodies against B2 (sc-569 Santa Cruz, Calif., USA) (antibody)” yielded an RLU [1] of 28100 RLU, an RLU [2] of 1.71e+06 RLU and an RLU [3] of 76000 RLU. The RLU [4] was 187000 RLU, the RLU [5] was 392000 RLU and the RLU [6] was 948000 RLU. For the same substance, the RLU [7] was 45100 RLU, the RLU [8] was 558000 RLU and the RLU [9] was 24400 RLU. For the same substance, the RLU [10] was 2.87e+06 RLU, the RLU [11] was 93900 RLU and the RLU [12] was 33400 RLU. It also gave an RLU [13] of 25800 RLU and an RLU [14] of 2.39e+06 RLU.
